Test results reported in publication PMC1277818, “Substrate specificity analysis of protein kinase complex Dbf2-Mob1 by peptide library and proteome array screening” (BMC Biochemistry, 2005).

How the values were obtained:
[1] = target: T1, FHHDbf2-H6Mob1TM9 (Saccharomyces cerevisiae, UniProt P22204+P40484); assay: Yeast proteome chip assay; type: biochemical; conditions: [γ-33P]ATP, chips in duplicate
T1 construct: made in house; host or cells: Hi5 insect cells (baculovirus)
T1 sequence (P22204 1-572): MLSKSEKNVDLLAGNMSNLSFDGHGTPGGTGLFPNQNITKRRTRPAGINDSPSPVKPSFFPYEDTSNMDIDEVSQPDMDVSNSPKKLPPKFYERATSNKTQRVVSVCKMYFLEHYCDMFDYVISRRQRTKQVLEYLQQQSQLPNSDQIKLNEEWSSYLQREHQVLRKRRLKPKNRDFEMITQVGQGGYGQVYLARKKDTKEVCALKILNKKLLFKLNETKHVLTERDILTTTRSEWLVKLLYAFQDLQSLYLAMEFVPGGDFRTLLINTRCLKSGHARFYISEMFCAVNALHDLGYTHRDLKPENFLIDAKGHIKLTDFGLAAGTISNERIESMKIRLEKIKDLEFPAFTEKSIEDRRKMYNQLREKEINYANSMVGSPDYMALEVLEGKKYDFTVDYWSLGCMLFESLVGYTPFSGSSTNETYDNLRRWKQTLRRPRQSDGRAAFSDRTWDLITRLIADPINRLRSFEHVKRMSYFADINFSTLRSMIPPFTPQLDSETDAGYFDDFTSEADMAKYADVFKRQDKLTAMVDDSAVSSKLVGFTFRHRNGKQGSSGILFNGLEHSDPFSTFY
T1 sequence (P40484 1-314 partner): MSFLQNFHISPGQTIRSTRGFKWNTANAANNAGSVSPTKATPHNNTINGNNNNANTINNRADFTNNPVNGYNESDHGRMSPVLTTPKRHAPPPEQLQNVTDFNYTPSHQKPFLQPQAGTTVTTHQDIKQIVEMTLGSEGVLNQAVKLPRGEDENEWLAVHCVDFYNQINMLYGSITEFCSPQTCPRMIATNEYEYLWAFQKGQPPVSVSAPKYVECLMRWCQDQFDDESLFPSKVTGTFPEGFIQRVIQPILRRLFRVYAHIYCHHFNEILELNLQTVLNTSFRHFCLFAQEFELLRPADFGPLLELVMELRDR
Outline: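 GST-tagged yeast proteins (~4,400 strains) spotted on proteome microarrays, probed in duplicate with FHHDbf2-H6Mob1TM9 in DKB plus [γ-33P]ATP; kinase-dead Dbf2(N305A) and kinase-free buffer served as controls. Positives: 3 of 4 spots ≥2 SD above background, fourth ≥1.5 SD.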

[2] = target: T1, FHHDbf2-H6Mob1TM9; assay: Kinase assays of immunoprecipitated TAP-tagged proteins; type: biochemical; conditions: protein on IgG sepharose beads, ~13 ng Dbf2, 2 μCi [γ-32P]ATP, 30 min, room temperature, SDS-PAGE, autoradiography
Protocol: TAP-tagged strains were obtained for 22 of the 25 top candidates. TAP-tagged alleles for three of the genes (YJL108C, YBR285W, and YBR108W) were not available, and therefore these candidates were not subjected to further analysis. Asynchronous cultures of the 22 TAP-tagged strains were grown and the TAP-tagged proteins immunoprecipitated with IgG sepharose and analyzed by Western blotting (Figure 2A). Candidates were determined to be phosphorylated if a radioactive signal was detected at the molecular weight predicted for the tagged protein. […] The 17 TAP-tagged proteins that were expressed and purified were used in Dbf2-Mob1 kinase assays (Figure 2B). Of the 17, 10 were determined to be phosphorylated.
The TAP-tagged proteins were immunoprecipitated with IgG sepharose beads from asynchronous cultures, fractionated on SDS-PAGE and immunoblotted with anti-TAP. […] (B) The TAP-tagged proteins expressed in (A) were treated with ^FHHDbf2-^H6Mob1^TM9 in the presence of [γ-^32P]ATP, fractionated on SDS-PAGE and detected by autoradiography.
Yeast strains containing TAP-tagged genes (Open Biosystems) were grown to OD600 ~2.0 in 25 mL of YPD. […] Immunoprecipitated TAP-tagged proteins were analyzed by SDS-PAGE and detected by Western blotting using the primary antibody anti-TAP (Open Biosystems) followed by goat anti-rabbit horseradish peroxidase (HRP)-conjugate (Bio-Rad), and ECL. […]

[3] = system: kinase-inactive FHHDbf2(N305A)-H6Mob1TM9; assay: Kinase assays of immunoprecipitated TAP-tagged proteins with the kinase-inactive complex; type: biochemical, Saccharomyces cerevisiae; conditions: protein on IgG sepharose beads, ~13 ng Dbf2, 2 μCi [γ-32P]ATP, 30 min, room temperature, SDS-PAGE, autoradiography
[4] = Table 3, GST fusion proteins on proteome chip, computer analysis
[5] = Table 4, the 25 proteins with highest signal relative to protein amount

B1: YDR226W: GST fusion yeast protein on proteome chip (protein, UniProt P07170 3-222, looked up)
Adenylate kinase: SSESIRMVLIGPPGAGKGTQAPNLQERFHAAHLATGDMLRSQIAKGTQLGLEAKKIMDQGGLVSDDIMVNMIKDELTNNPACKNGFILDGFPRTIPQAEKLDQMLKEQGTPLEKAIELKVDDELLVARITGRLIHPASGRSYHKIFNPPKEDMKDDVTGEALVQRSDDNADALKKRLAAYHAQTEPIVDFYKKTGIWAGVDASQPPATVWADILNKLGKD
modifications: GST tag
notes: GST fusion yeast protein on proteome chip
[1]; [4]
  Slide Signal (after normalization): 3.1016
[1]; [5]
  Slide Signal (after normalization): 3.1016
[2]
  Phosphorylation of TAP-tagged protein by Dbf2-Mob1: phosphorylated by Dbf2-Mob1
[3]
  Phosphorylation of TAP-tagged protein by kinase-inactive Dbf2(N305A)-Mob1: not its kinase inactive form

B2: YAL051W: GST fusion yeast protein on proteome chip (protein, UniProt P39720 1-1047, looked up)
Oleate-activated …: MVENSTQKAPHAGNDDNSSTKPYSEAFFLGFNNPTPGLEAEHSSTSPAPENSETHNRKRNRILFVCQACRKSKTKCDREKPECGRCVKHGLKCVYDVSKQPAPRIPSKDAIISRLEKDMFYWKDKAMKLLTEREVNESGKRSASPINTNNASGDSPDTKKQHKMEPIYEQSGNGDINNGTRNDIEINLYRSHPTMIMSKVMKREVKPLSENYIIIQDCFLKILVTSVFLDTSKNTMIPALTANANITRAQPSVANNLLKLKEMLIRQCQTEDEKNRVNEFTDRILQNTNSNRNLKIGMLLSMLYNSVGYQYLEDHCPQGGEYSDLLRNLINECEAILPSYEIIERYKNHFYEYVYPSLPFIELEIFEESLSQTIFPDPNNPSKVQIRMGSTHLRAKVENLSLLLVILKLSYMSIRFLDHSTADSSFYLSKEIIDKYPIPNDFILLSQRCLASENWCACANENIISCLLYIWSFFAFSPEEGDFFLEHPTDVISSLIMMLSTSIGLHRDPSDFPQLISPSTSDKRTLNHRRILWLSIVTVCSFEASLKGRHSVSPISLMALFLNIKDPDSLTVYMNRVRGDLSDINNHKLLRIHKFTFKRAQLALLLSDLDNLTMTYYGSFHLHSIEFIREKIEIFVEENFPIVPLKSVAQDKSDLDDMNVISEMNILSSENSSSFHNRIMNKLLMLRTSMAVFLHFETLITKDKSIFPFYKKYFMVSCMDALSLINYFNKFFNGEYRHAISSLTSFNVTKFIQLALSSTIFSLLGIILRIGLAIHMLSSEVQKLSGTTDPRIKELNTKVEKFSTLQRDLESALEGIYCSASEHLRFTYFPVFKMLALFDVIVQRMRKGELWHGIFTMIQMEQMHSRIIKTLSITLGVKLDKKDRLLEELMACNHVANFSVEDIDELNRNIKKEIQISSGLKPPVNTIDLTNGEPFGNAVPTFTKTWSSSLDNLEKLSSAAAVGQSLDYNSGLRQGPLAGGGSKEQTPIAGMNNLNNSINATPIVDNSSGSQLPNGFDRGQANNTPFPGYFGGLDLFDYDFLFGNDFA
modifications: GST tag
notes: as for B1
[1]; [5]
  Slide Signal (after normalization): 81.8589

B3: YOR362C: GST fusion yeast protein on proteome chip (protein, UniProt P21242 2-288, looked up)
Probable proteasome subunit …: TSIGTGYDLSNSVFSPDGRNFQVEYAVKAVENGTTSIGIKCNDGVVFAVEKLITSKLLVPQKNVKIQVVDRHIGCVYSGLIPDGRHLVNRGREEAASFKKLYKTPIPIPAFADRLGQYVQAHTLYNSVRPFGVSTIFGGVDKNGAHLYMLEPSGSYWGYKGAATGKGRQSAKAELEKLVDHHPEGLSAREAVKQAAKIIYLAHEDNKEKDFELEISWCSLSETNGLHKFVKGDLLQEAIDFAQKEINGDDDEDEDDSDNVMSSDDENAPVATNANATTDQEGDIHLE
modifications: GST tag
notes: as for B1
[1]; [4]
  Slide Signal (after normalization): 0.9895
[1]; [5]
  Slide Signal (after normalization): 0.9895
[2]
  Phosphorylation of TAP-tagged protein by Dbf2-Mob1: phosphorylated by Dbf2-Mob1
[3]
  Phosphorylation of TAP-tagged protein by kinase-inactive Dbf2(N305A)-Mob1: not its kinase inactive form
